{"source": "patent US6416987B1", "about": "“Mutants of thymidylate synthase and uses thereof” (Sloan Kettering Institute for Cancer Research, priority 1997, dated 2002)", "molecules": {"B1": {"name": "D49G: human TS mutant Asp49→Gly (protein)", "chain": "MPVAGSELPRRPLPPAAQERDAEPRPPHGELQYLGQIQHILRCGVRKDGRTGTGTLSVFGMQARYSLRDEFPLLTTKRVFWKGVLEELLWFIKGSTNAKELSSKGVKIWDANGSRDFLDSLGFSTREEGDLGPVYGFQWRHFGAEYRDMESDYSGQGVDQLQRVIDTIKTNPDDRRIIMCAWNPRDLPLMALPPCHALCQFYVVNSELSCQLYQRSGDMGLGVPFNIASYALLTYMIAHITGLKPGDFIHTLGDAHIYLNHIEPLKIQLQREPRPFPKLRILRKVGKIDDFKAEDFQIEGYNPHPTIKMEMAV"}, "B2": {"name": "Q214R: human TS mutant Gln214→Arg (protein)", "chain": "B1 chain with G49D, Q214R"}, "B3": {"name": "L221F: human TS mutant Leu221→Phe (protein)", "chain": "B1 chain with G49D, L221F"}, "B4": {"name": "F225S: human TS mutant Phe225→Ser (protein)", "chain": "B1 chain with G49D, F225S"}, "B5": {"name": "F59L: human TS mutant Phe59→Leu (protein)", "chain": "B1 chain with G49D, F59L"}, "B6": {"name": "wt: wild-type human thymidylate synthase (recombinant, Pro2 to Leu2 codon modification) (protein, listed as Homo sapiens)", "chain": "B1 chain with G49D", "modifications": "Wild type human thymidylate synthase amino acid sequence (Genbank Accession number NP001062)"}, "B7": {"name": "I108A: human TS mutant Ile108→Ala (protein)", "chain": "B1 chain with G49D, I108A"}, "B8": {"name": "L221R: human TS mutant Leu221→Arg (protein)", "chain": "B1 chain with G49D, L221R"}, "B9": {"name": "F225W: human TS mutant Phe225→Trp (protein)", "chain": "B1 chain with G49D, F225W"}, "B10": {"name": "Tyr33 to His33: literature human TS mutant found in a human colon tumor cell line (protein, UniProt P04818 2-313, looked up, variant Y33H)", "Thymidylate synthase": "PVAGSELPRRPLPPAAQERDAEPRPPHGELQHLGQIQHILRCGVRKDDRTGTGTLSVFGMQARYSLRDEFPLLTTKRVFWKGVLEELLWFIKGSTNAKELSSKGVKIWDANGSRDFLDSLGFSTREEGDLGPVYGFQWRHFGAEYRDMESDYSGQGVDQLQRVIDTIKTNPDDRRIIMCAWNPRDLPLMALPPCHALCQFYVVNSELSCQLYQRSGDMGLGVPFNIASYALLTYMIAHITGLKPGDFIHTLGDAHIYLNHIEPLKIQLQREPRPFPKLRILRKVEKIDDFKAEDFQIEGYNPHPTIKMEMAV"}, "B11": {"name": "pcDNA3hTS270: human TS mutant Ile108→Gly (protein, UniProt P04818 2-313, looked up, variant I108G)", "Thymidylate synthase": "B10 Thymidylate synthase with H32Y, I107G"}, "B12": {"name": "pcDNA3hTS271: human TS mutant Ile108→Glu (protein, UniProt P04818 2-313, looked up, variant I108E)", "Thymidylate synthase": "B10 Thymidylate synthase with H32Y, I107E"}, "B13": {"name": "pcDNA3hTS272: human TS mutant Ile108→Asn (protein, UniProt P04818 2-313, looked up, variant I108N)", "Thymidylate synthase": "B10 Thymidylate synthase with H32Y, I107N"}}, "key": {"[1]": {"tested_on": "Mouse TS-negative cells (FSthy21)", "assay": "Rescue of TS-negative cells by transfection of human TS cDNAs", "type": "cell-based", "conditions": "for TS catalytic function / complementation of growth of TS-negative cells: selective medium lacking thymidine; for FM3A TS cells surviving by transfection: selective medium without thymidine", "description": "Mouse TS-negative cells (FSthy21) were transfected with a plasmid (pcDNA3hTS*) encoding wild-type or a various mutant human TS enzyme by standard DOTAP transfection procedures. The host cells are deficient in TS, which are unable to survive without exogenous thymidine. […] In contrast, cells were unable to survive with transfection of other 11 human TS variants. For each surviving transfectant, at least 12 individual clones were isolated by soft agar or limiting dilution in 96-well plates. Those clones were expanded to cell lines by growth in normal media. Three cell clones for each transfectant were randomly selected for drug sensitivity assay."}, "[2]": {"tested_on": "human thymidylate synthase", "assay": "Kinetic parameters of wild-type and mutant human thymidylate synthases", "type": "biochemical", "experimental": "TS activity was monitored spectrophotometrically at 340 nm as described (Wahba et al., 1961). Activity was determined at 30° C. The assay mixture contained 50 mM Tris.HCl, pH 7.4, 25 mM MgCl2, 6.5 mM formadehyde, 1 mM EDTA, 75 mM BME and 100 μM dUMP, CH2H4folate (100 μM) was added to initiate the reaction. Black cuvettes lacked CH2H4folate. A unit of activity is defined as the amount of enzyme required to convert 1 μmol of dUMP to dTMP/minutes at 30° C. Protein was determined from OD280=0.87×10^5 M^−1 cm^−1, which is equivalent to 1.43 OD280/mg of protein.\nMichaelis constants (Km's) for CH2H4folate and dUMP were determined from initial velocity measurements, which were obtained by measuring the change in OD340 with a Shimadzu UV-2101 PC spectrophotometer. […] Steady-state kinetic parameters were subsequently obtained by a nonlinear least-squares fit of the data to the Michaelis-Menten equation using a computer program. The kcats were calculated by dividing Vmax by the estimated concentration of enzyme used in the reaction."}, "human TS": {"target": "human TS (Homo sapiens, UniProt P04818, Y33H)", "sequence (P04818 whole entry Y33H)": "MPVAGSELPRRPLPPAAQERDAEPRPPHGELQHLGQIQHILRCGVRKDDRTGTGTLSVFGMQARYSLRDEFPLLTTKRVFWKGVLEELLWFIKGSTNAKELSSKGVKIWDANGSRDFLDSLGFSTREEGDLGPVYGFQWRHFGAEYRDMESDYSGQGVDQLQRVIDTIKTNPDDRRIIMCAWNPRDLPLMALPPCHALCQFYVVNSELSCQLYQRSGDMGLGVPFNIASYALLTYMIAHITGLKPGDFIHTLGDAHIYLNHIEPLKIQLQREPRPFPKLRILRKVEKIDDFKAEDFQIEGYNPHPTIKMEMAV", "conditions": "vs wild-type TS; cited from earlier work"}, "[3]": {"conditions": "CH2H4folate 3 mM, read-out: Km (dUMP)"}, "[4]": {"conditions": "dUMP fixed at 200 μM, read-out: Km (CH2H4folate)"}}, "note": "Substitutions are numbered along the chain they refer to. Numbers in names are those of the source. Entries after “also recorded” stand apart in the source; their conditions may differ. Read-outs that look alike come from different tables or passages of the source.", "data": [{"molecule": "B1", "values": [{"measurement": "TS catalytic function / complementation of growth of TS-negative cells", "setting": "[1]", "result": "able to complement growth; also recorded: retain TS catalytic function; also recorded: able to allow growth"}, {"measurement": "FM3A TS cells surviving by transfection", "setting": "[1]", "result": "yes"}, {"measurement": "increase of Km for CH2H4folate over wild-type", "setting": "[2]", "result": 4, "unit": "fold"}, {"measurement": "increase of Km for dUMP over wild-type", "setting": "[2]", "result": 4, "unit": "fold"}, {"measurement": "kcat", "setting": "[2]", "result": 0.16, "unit": "s⁻¹"}, {"measurement": "kcat lower than wild-type TS", "setting": "[2]", "result": 3, "unit": "fold"}, {"measurement": "Km", "setting": "[2]; [3]", "result": 12, "unit": "µM"}, {"measurement": "Km", "setting": "[2]; [4]", "result": 122, "unit": "µM"}]}, {"molecule": "B2", "values": [{"measurement": "FM3A TS cells surviving by transfection", "setting": "[1]", "result": "no"}]}, {"molecule": "B3", "values": [{"measurement": "TS catalytic function / complementation of growth of TS-negative cells", "setting": "[1]", "result": "inactive"}, {"measurement": "FM3A TS cells surviving by transfection", "setting": "[1]", "result": "no"}]}, {"molecule": "B4", "values": [{"measurement": "TS catalytic function / complementation of growth of TS-negative cells", "setting": "[1]", "result": "severely diminished TS catalytic activity"}, {"measurement": "FM3A TS cells surviving by transfection", "setting": "[1]", "result": "no"}]}, {"molecule": "B5", "values": [{"measurement": "FM3A TS cells surviving by transfection", "setting": "[1]", "result": "no"}]}, {"molecule": "B6", "values": [{"measurement": "TS catalytic function / complementation of growth of TS-negative cells", "setting": "[1]", "result": "able to complement growth"}, {"measurement": "FM3A TS cells surviving by transfection", "setting": "[1]", "result": "yes"}, {"measurement": "kcat", "setting": "[2]", "result": 0.68, "unit": "s⁻¹"}, {"measurement": "Km", "setting": "[2]; [3]", "result": 4.4, "unit": "µM"}, {"measurement": "Km", "setting": "[2]; [4]", "result": 32.4, "unit": "µM"}]}, {"molecule": "B7", "values": [{"measurement": "TS catalytic function / complementation of growth of TS-negative cells", "setting": "[1]", "result": "able to complement growth; also recorded: functional"}, {"measurement": "FM3A TS cells surviving by transfection", "setting": "[1]", "result": "yes"}, {"measurement": "increase of Km for CH2H4folate over wild-type", "setting": "[2]", "result": 22, "unit": "fold"}, {"measurement": "increase of Km for dUMP over wild-type", "setting": "[2]", "result": 4, "unit": "fold"}, {"measurement": "kcat", "setting": "[2]", "result": 0.22, "unit": "s⁻¹"}, {"measurement": "kcat lower than wild-type TS", "setting": "[2]", "result": 3, "unit": "fold"}, {"measurement": "Km", "setting": "[2]; [3]", "result": 15, "unit": "µM"}, {"measurement": "Km", "setting": "[2]; [4]", "result": 746, "unit": "µM"}]}, {"molecule": "B8", "values": [{"measurement": "FM3A TS cells surviving by transfection", "setting": "[1]", "result": "no"}]}, {"molecule": "B9", "values": [{"measurement": "TS catalytic function / complementation of growth of TS-negative cells", "setting": "[1]", "result": "able to complement growth; also recorded: active enzymes"}, {"measurement": "FM3A TS cells surviving by transfection", "setting": "[1]", "result": "yes"}, {"measurement": "increase of Km for CH2H4folate over wild-type", "setting": "[2]", "result": 4, "unit": "fold"}, {"measurement": "kcat", "setting": "[2]", "result": 2.3, "unit": "s⁻¹"}, {"measurement": "Km", "setting": "[2]; [3]", "result": 3.6, "unit": "µM"}, {"measurement": "Km", "setting": "[2]; [4]", "result": 165, "unit": "µM"}]}, {"molecule": "B10", "values": [{"measurement": "drop in kcat", "setting": "human TS", "result": 8, "unit": "fold"}]}, {"molecule": "B11", "values": [{"measurement": "FM3A TS cells surviving by transfection", "setting": "[1]", "result": "no"}]}, {"molecule": "B12", "values": [{"measurement": "FM3A TS cells surviving by transfection", "setting": "[1]", "result": "no"}]}, {"molecule": "B13", "values": [{"measurement": "FM3A TS cells surviving by transfection", "setting": "[1]", "result": "no"}]}]}
